Source: the PETadex activity labels

Substrate: BHET
Conditions: 120 h

B1: unnamed (protein)
chain: MEMFVVPKINITFNEVAVMPSSIPVKILTGVCSLLFSVSAFSFTPSPDPDPDPGPGPCQEDCDFTRGPNPTSNYLEASSGPYNVSTIGVSRSVSGFGGGTVHYPQGTTGTMGAIAIVPGFLAGESSIAWWGPRLASHGFVVITIATNSTFDQPGSRSTQLGRALDYVINLSNSSSSPISGMVDSTRVAAMGWSMGGGGTLRLASGGRLSAAIPLAPWNTGSNSFNQITTPTLILACENDSTAPVSVHASPFYNRIPSSTDKAYLEINNGSHSCANGGGANGGLLGKYGVSWMKRFIDDDARYSQFLCGPNHQANSAISEYRDTCNY
plate clearing: not clears the plate

B2: unnamed (protein)
chain: MHQGIHMERKNIRRRWAIGLLGMLVLAASAHAQTNPHQKGPDPTSASLNATSGSFSVATSSVSSLGAVGFGGGTVYYPTTTGTYAVLAICPGFTATQSSIAWLGRRIATHGFVVITIDTNSTLDQPPSRATQLMAALNYVTNSSSATVRSRVDASRRGVAGHSMGGGGTLYAARDNPSLKAAVPLTAWSTLKSFSSVQVPTLVVGAESDSIASVSSHSIPFYNSLSTSLDKAYAELNGATHFAPNSTNTPIGRYSVSWVKRFMDNDTRYTPFLCGAPHQSYATSLVFSDYRSTCPY
plate clearing: not clears the plate

B3: unnamed (protein)
chain: MKTIERGQRRCAVGLGLLLLAAAAHAQTNPLAKGPDPTSALLNANAGPFAIASTAVPSSVAGFGGGTVYYPTAAGSYATVAICPGFTATQSSIAWIGQRMASHGFVAMTINTNSTFDQPPSRATQLMAALRYLTNSSNSTVRARVDASRLGVAGHSMGGGGTLMAARDNTTLKAAVPLTPWSQTKSFSTVRVPTLVVGAENDTVAPVAQHSIPFYTSLPASLDKAYAELNNASHFAPNSTNTAIGRYSVAWVKRFMDNDTRYEPFLCGAPHTAFATPTVFSDYRSTCPYQ
plate clearing: not clears the plate

B4: unnamed (protein)
chain: MKTTVSRIKGLSVAAAMALASLATPALSQTSAPTSASLNATSGPLSVSTASVLLPVGFGGGTIYYPTVAGKYGVIAISPGFTATQSSIAWLGRRIATHGFVVITMNTITTLDQPDSRATQLMAALRYVLNSSGTAVRARIDSTRLAVAGHSMGGGGSLIAARDNPTLKASYPMTPWNLSTNFSTVRVPTMIIGADGDTIAPVAVHARPFYASLPSSTYKAYGELNNGTHFSPNSTNTPIGRYAVAWMKRFVDGDTRYSPFLCGAEHAAYATGWVFDRYNQNCPY
plate clearing: not clears the plate

B5: unnamed (protein)
chain: MKIKNRTACTTAAPSPARRRLAMASLAAAGLLCSFTAQAQVAVFQENFTSGLGSFTAAGSATNSSGAARLAGCYGCTDGAITSGPISTVGFSSLSLSFDRVTSGLDIGEGGIAEYSTNGSTWTALETTRATSNGRVTFNLPAAAAGQTGLRLRFRIDANLSSETYTVDNIQLTGISGDGGGTNPHAKGPAPTASLLEASTGPFTYASTNVSSLSADGYGGATIFHPTNVAGPFAAIAISPGYTGTKSTMTWWGERLASHGFVVAVIDTNSIYDQPYQRAPQLMAALRQLVTFSNTSSHPIYRKVDPNRLGVMGHSMGGGGTLIAARDNPTLKAAIPLAPWNTSTNFSSVSVPTLVVACESDSIAPVNSHASPFYNSLPSSTRKAFMEMNNGDHFCVMNGNDFTRIMGKYGVAWMKRFLDNDTRYSPFLCGAQHQADLSNSQLSEYRENCPY
plate clearing: clears the plate (z > 3 vs empty vector)

B6: unnamed (protein)
chain: MRETSLHRSPAPALAQACTRAASRLRFAALGLAAGLLSLAAQAQINPDQRGPNPTAASLEATAGPYAVKTSKVASQSNFGGGTVYFPDSNEGPFGVIAIAPGFTEGQSVNSWWGNRLASHGFVVITASMKNVLQYPTPRAKELVAALNYVVAQSQTSGSPYFGKVDPARRGVMGHSMGGGGTLEVVRDDPTIKAAIPLAPWDLSKVFTQVTTPTLIVACEKDAIAPVNTHASTFYDSLSASLDKAFLELKGADHFCTNTSTTAARKTVLGKYGVAWMKRFIDSDTRYAPFLCGATHEAYLSASSSVISRYKSSCPY
plate clearing: not clears the plate

B7: unnamed (protein)
chain: MKNTAFRKVSVVAVTFLLSVTAFAGGGGGGGGDNSGALPLPDTCNSNCGYELGPNPSLSFVQANRGPQPTTTTNVSSSVDGFGGGTIYYPTNISQEMAAISIAPGFTNTQSAVAWWGPVLASHGFVVITIDTNGRFDQPESRSRQLDAALNHLISESDRSSSPISGLVDRNRLATMGFSMGGGGSLRSASRNRLSAAVPLAPWSVGGNNFNQIGVPTMIMACENDGTAGINQHARPFYNAIPGSTDKVYLEINDGPHNCANGNNINNATLSTYGVSWMKRFLDKDRRFNQFLCGPNHEANSRISQFRDTCLF
plate clearing: not clears the plate
